Drawing on article PMC10148881, “Recognition of an Ala-rich C-degron by the E3 ligase Pirh2” (Nature Communications, 2023), this text covers Kd for 1 substance.

By pKd is commonly meant the negative decadic logarithm of the Kd, by convention in mol/L. Higher therefore signals a small Kd.

This experiment addresses Ala6/C-degron peptide (sequence: …). As to the kind of experiment: ITC. Background: In ITC the heat of successive injections is recorded.

pKd: −log10 of the molar value.

In turn, WT Pirh2 I110D had a pKd of 4.40.
